This note sets out measurements from patent US20200132691A1, “DETECTION AND TARGETING OF TUMOR-PROMOTING NEUTROPHILS” (THE GENERAL HOSPITAL CORPORATION, priority 2017, published 2020).

The subject of one series is Ocn+ cells. In words: In vivo osteoblast depletion with diphtheria toxin. Also noted: species or system mouse. Particulars: OcnCre;Dtr or OcnCre;Dtr/Yfp mice; flow cytometry, immunohistochemistry, in situ microscopy, bone histomorphometry. Here is the method:
(§1) Ocn^Cre;Dtr, Ocn^Cre;Dtr/Yfp and control mice lacking either transgene were treated i.p. with DT (100 μl; 20 μg/kg, Sigma-Aldrich) every other day for 9 days with a total of five injections per mouse. In some experiments, osteoblast depletion was performed for 3 consecutive days using DT. For both DT treatment protocols, osteoblast depletion was verified. Body weight was monitored to control for DT-induced toxicity. Osteoblast depletion was verified using histological evaluation of femurs, IHC for osteocalcin and ex vivo whole mount immunofluorescence of Ocn^Cre;Dtr/Yfp mice.

The nature of series [1]: Body weight monitoring for DT-induced toxicity. Type of series: in vivo, mouse. Particulars: DT-treated mice. Here is the method:
as §1

The subject of a further series is splenocytes. The experiment in a line: In vitro assay of DT-mediated direct effects on hematopoietic cells (splenocytes).
The subject of the next series is neutrophils. In words: Neutrophil counts in wild-type mice treated with DT. Particulars: bone marrow.

diphtheria toxin [DT]: in the series on Ocn+ cells, the “Ocn+ cell numbers” value was “significantly reduced”. In addition, in series [1], the body weight entry is listed as “did not affect”. Besides, in the series on splenocytes (DT concentration used, in vitro DT titration and in vivo cellular staining by flow cytometry), the “viability of hematopoietic cells” value is on record as “did not affect the viability”. Besides, in the series with splenocytes (cells from OcnCre;Dtr mice, in vitro), the “killing of CD11b+ myeloid cells” value is “not killed”. Further, in the series with splenocytes (positive control, in vitro), the “killing of DTR+ cells” value is on record as “ability to kill”. In addition, the neutrophil counts entry with neutrophils is on record as “maintained”.
